Measured values published in US20230348564A1, “ANTI-CANCER PROTEINS” (UNICHEM LABORATORIES LTD, priority 2020, published 2023).

Tests used:
[1] = test system: HT-29 (Colorectal cancer); assay: Xenograft study; type: in vivo, mice
Excerpt: (§1) The Xenograft models used were HT-29, KB, PA-1, MCF-7, PANC-1, T24 and MDA-MB-231. The basic study design for the Xenograft study was as follows: • 1. Cell maintenance and cell suspension preparation • 2. Aseptic injection of tumor cell suspension in the donor animal • 3. Randomization of animals in respective groups • 4. IP dosing of test items in predetermined doses • 5. IP administration of standard • 6. After completion of dosing period. • 7. The Tumor volume recording weekly twice while body weight and clinical signs daily.

KB (Cervical cancer) = assay: Xenograft study; type: in vivo, mice; conditions: IP
Excerpt: as §1

MCF-7 (Breast cancer) = assay: Xenograft study; type: in vivo, mice; conditions: MCF-7 xenograft, IP
Excerpt: as §1

[2] = test system: MDA-MB-231 (Mammary gland/breast adenocarcinoma); assay: Xenograft study; type: in vivo, mice; conditions: MDA-MB-231 xenograft, IP
Excerpt: as §1

[3] = test system: PA-1 (Ovary teratocarcinoma); assay: Xenograft study; type: in vivo, mice; conditions: PA-1 xenograft, IP
Excerpt: as §1

[4] = test system: PANC-1 (Pancreas/duct epithelioid carcinoma); assay: Xenograft study; type: in vivo, mice; conditions: PANC-1 xenograft, IP
Excerpt: as §1

[5] = test system: T24 (Urinary bladder/transitional cell carcinoma); assay: Xenograft study; type: in vivo, mice; conditions: IP
Excerpt: as §1

[6] = test system: EA.hy926 (Human endothelial cells); assay: Cell migration by scratch assay in endothelial cells; type: cell-based
Procedure: EA.hy296 cells were counted using hemocytometer and plated in 6-well plates at the density of 0.5×10^6 cells/well. The cells were incubated overnight under growth conditions as described above so as to allow cell recovery and exponential growth. Following overnight incubation, a small linear scratch (representative wound) was created in the confluent monolayer (middle of the well) by gently scraping with sterile 200 μl micropipette tip. Photomicrographs of the scratch were taken at 0 h (Initial time point). Cells were rinsed with serum free DMEM and grouped for treatment in two different serum conditions:
• Baseline control: Cells+DMEM • Positive/Validation control: Baseline control+Positive Control. Test: Baseline control+Test Item
• Baseline control: Cells+DMEM+1% FBS • Positive/Validation control: Baseline control+Positive Control. • Test: Baseline control+Test item
Photomicrographs of the scratch were taken at 24 h-72 h time points. The photomicrographs obtained in the above step were analyzed for quantitative assessment of area of wound closure using ImageJ tool software. Percentage migration with respect to untreated cells at different time points was calculated.

Glioblastoma (LN-18) = assay: cytotoxicity in Brain Tumor Cell lines by MTT assay; type: cell-based, Human; conditions: 72 h
Procedure: (§2) The SEQ ID NO. […] Untreated cells were used as control. […] Cells were incubated for 3 h at 37° C.

Neuroblastoma (SH-SY5Y) = assay: as above; type: cell-based, Human; conditions: 72 h
Procedure: as §2

Glioma (C6) = assay: as above; type: cell-based, Rat; conditions: 72 h
Procedure: as §2

[7] = test system: MCF-10A (Human mammary epithelial cells); assay: Calcein AM cytotoxicity assay; conditions: 48h
Procedure: All the cancer cell lines were procured from National Centre for Cell Science, Pune (India). The cell lines were maintained under conditions as described in Table 21 below. The cell lines were sub-cultured by trypsinization followed by splitting the cell suspension into fresh flasks and supplementing with fresh culture medium.
All the cell lines were grown in specified media at 37° C. with 95% Humidity and […].
The cells were trypsinized, counted by Trypan blue method in Neuebauer's Chamber and plated in wells of flat bottom 96-well plate (dark walled plate, flat bottom) at the density corresponding to 10×10^3 cells/well/180 μl medium.
Following overnight incubation, the cells were treated with test item (20 μL) at concentrations ranging from 2.5-80 μg/mL, so that the total volume in each well is 200 μL.
The cells were incubated with the test items or positive control for a time period of 48h. Following incubation, the cell cytotoxicity was estimated using Calcein AM Cell Viability Assay Kit from R&D systems (Cat No. 4892-010-K).
Fluorescence was measured at 485 nm (excitation/528 run (emission) spectra using Synergy HT micro plate reader.
Percentage cytotoxicity wrt untreated cells was calculated using formula:
Cytotoxicity=[(RFUuntreated−RFUsample)/RFUuntreated]*100
RFU: relative fluorescence units
IC50 value was calculated using Graph-Pad Prism version 4.01 software.

Glioblastoma (U251MG) = assay: cytotoxicity in Brain Tumor Cell lines by MTT assay; conditions: 72 h

B1: SEQ ID NO. 2: recombinant lectin; variant of the S. rolfsii lectin amino acid sequence (reported as Rec-2 in WO 2010/095143) (protein)
chain: TYKITVRVYQTNPDAFFHPVEKTVWKYANGGTWTITDDQHVLTMGGSGTSGTLRFHADNGESFTATFGVHNYKRWCDIVTNLAADETGMVINQQYYSQKNREEARERQLSNYQVKNAKGRNFQIVYTEAEGNDLHANLIIG
modifications: In vitro synthesis
With B1 the “tumor volume in comparison with the vehicle control group, in words” value ([1]; 20 mg/Kg and 30 mg/Kg body weight (daily)) was “significant decrease in tumor volume”, the “Maximum Tumor Growth Inhibition (%)” value ([1]; HT-29 xenograft, IP) was 56.62% and the “Tumor Volume (mm^3) (Mean ± SEM)” value ([1]; HT-29 xenograft, IP) was 1702 ± 274 mm^3. The “Maximum Tumor Growth Inhibition (%)” value (KB (Cervical cancer)) was 60.49%, the “Tumor Volume (mm^3) (Mean ± SEM)” value (KB (Cervical cancer)) was 782 ± 92 mm^3 and the “Maximum Tumor Growth Inhibition (%)” value (MCF-7 (Breast cancer)) was 69.04%. The “Tumor Volume (mm^3) (Mean ± SEM)” value (MCF-7 (Breast cancer)) was 1256 ± 132 mm^3, the “Maximum Tumor Growth Inhibition (%)” value [2] was 35.21% and the “Tumor Volume (mm^3) (Mean ± SEM)” value [2] was 834.80 ± 126.95 mm^3. For the same molecule, the “Maximum Tumor Growth Inhibition (%)” value [3] was 62.15%, the “Tumor Volume (mm^3) (Mean ± SEM)” value [3] was 1050 ± 132 mm^3 and the “Maximum Tumor Growth Inhibition (%)” value [4] was 39.15%. For the same molecule, the “Tumor Volume (mm^3) (Mean ± SEM)” value [4] was 721.17 ± 194.63 mm^3, the “Maximum Tumor Growth Inhibition (%)” value [5] was 36.52% and the “Tumor Volume (mm^3) (Mean ± SEM)” value [5] was 551.06 ± 10.02 mm^3. The “inhibition of endothelial cells migration as compared to control (DMEM)” value ([6]; 20 μg/mL to 100 μg/mL, after 72 hrs) was 71.5% to 82.4%, the “Inhibition of migration with respect to untreated” value (shortened to “Inhibition of migration”) ([6]; 20 μg/mL, 24 h, 1% FBS) was 0.8% and the “Inhibition of migration” value ([6]; 20 μg/mL, 24 h, SFM) was 74%. For the same molecule, the “Inhibition of migration” value ([6]; 20 μg/mL, 48 h, 1% FBS) was 5.4%, the “Inhibition of migration” value ([6]; 20 μg/mL, 48 h, SFM) was 81.1% and the “Inhibition of migration” value ([6]; 20 μg/mL, 72 h, SFM) was 82.4%. For the same molecule, the “Inhibition of migration” value ([6]; 40 μg/mL, 24 h, 1% FBS) was 28.5%, the “Inhibition of migration” value ([6]; 40 μg/mL, 24 h, SFM) was 80.5% and the “Inhibition of migration” value ([6]; 40 μg/mL, 48 h, 1% FBS) was 35.3%. The “Inhibition of migration” value ([6]; 40 μg/mL, 48 h, SFM) was 82.3%, the “Inhibition of migration” value ([6]; 40 μg/mL, 72 h, SFM) was 82.2% and the “Inhibition of migration” value ([6]; 50 μg/mL, 24 h, 1% FBS) was 30.0%. The “Inhibition of migration” value ([6]; 50 μg/mL, 24 h, SFM) was 79.9%, the “Inhibition of migration” value ([6]; 50 μg/mL, 48 h, 1% FBS) was 42.9% and the “Inhibition of migration” value ([6]; 50 μg/mL, 48 h, SFM) was 81%. The “Inhibition of migration” value ([6]; 50 μg/mL, 72 h, SFM) was 79.5%, the “Inhibition of migration” value ([6]; 60 μg/mL, 24 h, 1% FBS) was 50.1% and the “Inhibition of migration” value ([6]; 60 μg/mL, 24 h, SFM) was 82.0%. The “Inhibition of migration” value ([6]; 60 μg/mL, 48 h, 1% FBS) was 63.5%, the “Inhibition of migration” value ([6]; 60 μg/mL, 48 h, SFM) was 77.3% and the “Inhibition of migration” value ([6]; 60 μg/mL, 72 h, SFM) was 76.0%. The “Inhibition of migration” value ([6]; 80 μg/mL, 24 h, 1% FBS) was 65.6%, the “Inhibition of migration” value ([6]; 80 μg/mL, 24 h, SFM) was 80.5% and the “Inhibition of migration” value ([6]; 80 μg/mL, 48 h, 1% FBS) was 77.8%. The “Inhibition of migration” value ([6]; 80 μg/mL, 48 h, SFM) was 78.2%, the “Inhibition of migration” value ([6]; 80 μg/mL, 72 h, SFM) was 74.5% and the “Inhibition of migration” value ([6]; 100 μg/mL, 24 h, 1% FBS) was 73.8%. For the same molecule, the “Inhibition of migration” value ([6]; 100 μg/mL, 24 h, SFM) was 55.7%, the “Inhibition of migration” value ([6]; 100 μg/mL, 48 h, 1% FBS) was 73.1% and the “Inhibition of migration” value ([6]; 100 μg/mL, 48 h, SFM) was 73.2%. For the same molecule, the “Inhibition of migration” value ([6]; 100 μg/mL, 72 h, SFM) was 71.5%, the “% of cytotoxicity” value (Glioblastoma (LN-18); 2.5 μg/mL-100 μg/mL) was 39.6%-75.3% and the “IC50 Value” (Glioblastoma (LN-18)) was 4.35 µg/mL. For the same molecule, the “% of cytotoxicity” value (Neuroblastoma (SH-SY5Y); 2.5 μg/mL-100 μg/mL) was 10.3%-46.9%, the “IC50 Value” (Neuroblastoma (SH-SY5Y)) was greater than 100 µg/mL and the “% of cytotoxicity” value (Glioma (C6); 2.5 μg/mL-100 μg/mL) was 18.8-48.3%. The “IC50 Value” (Glioma (C6)) was greater than 100 µg/mL, the IC50 [7] was greater than 80 µg/mL and the “% Cytotoxicity” value (AGS) was 65.3%. The “% Cytotoxicity” value (HT-29) was 54.9%, the “% Cytotoxicity” value (PA-1) was 72.0% and the “% Cytotoxicity” value (T-24) was 93.1%. For the same molecule, the “IC50 Value” (Glioblastoma (U251MG)) was 11.05 µg/mL.
